Usually stoichiometry N stands for the number of molecules, sites or subunits per partner or assembly.

For the experiment, the target named is glutamate-1-semialdehyde aminotransferase (GSAAT), endogenous (Arabidopsis thaliana (endogenous in leaf extracts; the plant of the chloroplast extracts is not named)) (UniProt P42799). Briefly: non-reducing SDS-PAGE with immunoblot; wild-type Arabidopsis leaf extracts, untreated or pretreated with H2O2, diamide or DTT for 30 min at room temperature; non-reducing 8% SDS-PA gel (the text says non-denaturing PA gel); GSAAT-specific antibody.

Chain of glutamate-1-semialdehyde aminotransferase (GSAAT), endogenous (P42799 39-474): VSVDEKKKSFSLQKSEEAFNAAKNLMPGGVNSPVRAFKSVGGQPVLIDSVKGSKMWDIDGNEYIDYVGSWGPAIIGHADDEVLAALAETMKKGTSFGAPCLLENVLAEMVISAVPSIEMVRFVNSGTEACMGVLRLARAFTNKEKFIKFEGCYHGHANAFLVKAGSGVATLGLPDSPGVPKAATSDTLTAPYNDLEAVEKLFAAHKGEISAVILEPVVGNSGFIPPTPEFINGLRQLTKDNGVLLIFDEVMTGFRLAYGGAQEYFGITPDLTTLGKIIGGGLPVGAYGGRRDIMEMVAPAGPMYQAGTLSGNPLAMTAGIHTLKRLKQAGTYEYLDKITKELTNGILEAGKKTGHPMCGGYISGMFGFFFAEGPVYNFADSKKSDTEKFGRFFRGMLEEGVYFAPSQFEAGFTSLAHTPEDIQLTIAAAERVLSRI

Take “glutamate-1-semialdehyde aminotransferase (GSAAT), endogenous (from UniProt P42799 39-474) (enzyme)”: the stoichiometry N amounted to 2.

For the origin of these results see PMC12678314.
